# Test results from paper PMC7873233.
# How the values were obtained:
# [1] = molecular target: 16055 SOSIP.v5.2 (HIV-1 (clade C isolate 16055)); experiment: negative-stain EM; PGT145-purified protein, 20-50 ug/mL on carbon-coated Cu grids, 2% uranyl formate, 2D class averages; gp120-gp41 protomers to trimer
# [2] = molecular target: 16055 SOSIP.v8.3 (HIV-1 (clade C isolate 16055)); experiment: as above
Substance,percent native-like trimers [1] [%],stoichiometry N [1],percent native-like trimers [2] [%],stoichiometry N [2]
16055 SOSIP.v5.2 (complex),72,3,,
16055 SOSIP.v8.3 (complex),,,> 95,3
